Data on 139 substances can be found in the supplement of paper PMC12042874.

± gives the uncertainty stated by the source.

This series can be described thus: amyloid nucleation score (Sup35N fusion, yeast selection) (log enrichment); library NNK1; higher = more nucleation; inactive = no reads after selection. The essentials: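 Growth for 7 days at 30°C on medium lacking adenine and uracil followed a 24-hour induction with 100 μM copper sulfate of psi-negative yeast expressing peptides of 20 random codons fused to Sup35N. Input and output plasmid inserts were sequenced with Illumina, and sequences with under 100 input reads were excluded. Nucleation score is the DiMSum log enrichment of output over input reads, centred on the mode score of non-aggregating sequences.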
RADPYVYLMEGVCGPRWEPN came in with an amyloid nucleation score of 0.014 ± 0.77.

VSLCEMNRSFCWDAGASGRV came in with an amyloid nucleation score of 0.621 ± 1.

Turning to SDAGARKIIFCFEIITQHPV, the amyloid nucleation score is -0.235 ± 0.42.

Regarding YHKTYIRYWAIVFDMMVRFG, the amyloid nucleation score worked out at 0.372 ± 1.4.

As to MSVLALVPGYLSA, the amyloid nucleation score is -0.088 ± 0.46.

DMNNNIVSKSSFLGDVRVIY showed an amyloid nucleation score of -0.19 ± 1.2.

Substance VKYTYDS gave an amyloid nucleation score of -0.238 ± 0.65.

With CLKWTVNIDGFIPDARLPRS, the amyloid nucleation score was determined as 3.18 ± 0.18.

Take MTVCM: the amyloid nucleation score is 0.125 ± 1.4.

ASQRSQNCCIVESIDEVLFS: the amyloid nucleation score was 0.85 ± 0.41.

Take GMSPPSNSFFSFCFTGLVKF: the amyloid nucleation score stood at 0.319 ± 0.61.

Substance GGWDAGGGHAIRRIVECMVR returned an amyloid nucleation score of 0.601 ± 1.1.

As for RQNVQWR, the amyloid nucleation score worked out at 1.86 ± 0.62.

Regarding TRNFKQK, the amyloid nucleation score is -1.78 ± 1.8.

RFFFGYAK had an amyloid nucleation score of 2.02 ± 0.2.

Substance FDVIGSCVGDQWTAGMDWTL had an amyloid nucleation score of 0.429 ± 0.51.

With AGMTFRFLHEVSSSQSN, the amyloid nucleation score amounted to 3.06 ± 0.13.

Regarding GSMSGTTDIPC, the amyloid nucleation score was -0.158 ± 0.51.

AVLNQYRELKQAGSFYVSTM came in with an amyloid nucleation score of 0.618 ± 0.52.

LVESMNLIPATANRHNFTRL gave an amyloid nucleation score of -0.672 ± 1.4.

On to YPSDLLDIWDDWICWCWELN, for which the amyloid nucleation score stood at 0.225 ± 0.53.

Consider RQGPGRLHSTCKTL, for which the amyloid nucleation score is -0.257 ± 1.4.

In the case of QRHITSL, the amyloid nucleation score was -1.37 ± 1.9.

Regarding FFYNLFDILFFSFFRILSII, the amyloid nucleation score result was “inactive”.

Consider VGYHFMYSMSAFVASWRSWG, for which the amyloid nucleation score is -0.482 ± 0.88.

For GYTRGDDSGAVHSLSWVFAG, the amyloid nucleation score is -0.361 ± 1.7.

QTGQRFALKDSTSNSIPYLE showed an amyloid nucleation score of -0.607 ± 0.96.

In turn, CAVLLVIGTAANEMCARRLI displayed an amyloid nucleation score of -0.197 ± 1.9.

YLDGVIWFLK came in with an amyloid nucleation score of -0.591 ± 0.31.

HSSSSHGEKCGYVGNSHPSS yielded an amyloid nucleation score of 0.691 ± 0.92.

As for RVVRKPCFPGVGRILSADLA, the amyloid nucleation score was 0.958 ± 0.59.

SFFLLPMWLIVGSRGHQRRT: the amyloid nucleation score entry is “inactive”.

Consider GLTWKTFPSCPMSENNCIRH, for which the amyloid nucleation score amounted to 0.133 ± 0.79.

QSNLYLLALELAYECYSGCH registered an amyloid nucleation score of 0.049 ± 0.72.

In the case of DFLNWWCRCVTFNSGRSGFV, the amyloid nucleation score was found to be 0.392 ± 0.6.

In turn, FHPKFWCNRFS registered an amyloid nucleation score of -0.442 ± 0.72.

Take CCHYDHKSGVNSLRRKTNVW: the amyloid nucleation score turned out to be 1.57 ± 0.43.

In the case of YGTNKISVALWS, the amyloid nucleation score is -0.054 ± 0.79.

Substance TNSCNLELAVICMSSYWG displayed an amyloid nucleation score of 4.71 ± 0.069.

GFNKR: the amyloid nucleation score is -0.991 ± 2.4.

IVGIVT: the amyloid nucleation score was determined as 1.04 ± 0.35.

Substance ELFAFCMVPYYTRNMLWLVG displayed an amyloid nucleation score of 0.584 ± 0.97.

For MYTFN, the amyloid nucleation score was -0.031 ± 0.19.

With LLGRYNLLYIGMFRATRGGC, the amyloid nucleation score was -0.094 ± 1.5.

DYTRC had an amyloid nucleation score of 0.391 ± 0.97.

For LLASAIHLNRTADAMKEYYP, the amyloid nucleation score is -0.036 ± 0.39.

In the case of DLFICSSARAVNKIFRVLHA, the amyloid nucleation score amounted to 0.511 ± 0.91.

In the case of ILCFFRECLLDWVSLGRFIV, the amyloid nucleation score entry was “inactive”.

Regarding SEMGYPGWTGKERKRLSNWA, the amyloid nucleation score is -0.989 ± 0.8.

The substance YVPGSRLRPYLIQSFNNSLY gave an amyloid nucleation score of 2.81 ± 0.19.

With LCFVVVTSHDRGMHVIKVET, the amyloid nucleation score is -0.857 ± 0.51.

With CGNAWVKAIMW, the amyloid nucleation score is -0.191 ± 0.66.

Substance VLMITGVCCSHNMLVLADKR registered an amyloid nucleation score of 6.609 ± 0.057.

With QIPPRDL, the amyloid nucleation score was 0.274 ± 0.51.

In turn, LMYSVS yielded an amyloid nucleation score of 0.434 ± 0.38.

In the case of CLARGSKYWNRQNKVNFPYI, the amyloid nucleation score is 1.51 ± 0.13.

As to LALHEWLWLFDTFH, the amyloid nucleation score is -0.097 ± 0.62.

LASHHLACCYPNLSTSYLNP gave an amyloid nucleation score of -0.118 ± 0.84.

Regarding VSFGIFMNESYV, the amyloid nucleation score was determined as 1.52 ± 0.098.

MISIS registered an amyloid nucleation score of 0.088 ± 0.26.

In turn, AAGRMIRIMVTGVRLDKDKD yielded an amyloid nucleation score of -0.257 ± 1.7.

Regarding FSGVMLVEWLTSPRHLRRAL, the amyloid nucleation score is 0.678 ± 1.1.

VGSSLDMPAPKRVGSEYCSV displayed an amyloid nucleation score of 0.279 ± 0.66.

As to PRYNCYQQHEVALDFSSLRC, the amyloid nucleation score is -0.297 ± 0.54.

TSGWRYGYSSYHYRTLNGFV returned an amyloid nucleation score of -0.35 ± 0.47.

Take SYVVYCHSAMRRKGSMGRYL: the amyloid nucleation score came out at 0.468 ± 0.37.

For LASGNILAICWTRSEGSDTL, the amyloid nucleation score was -0.313 ± 1.1.

For the substance RRWGFRAERVL, the amyloid nucleation score was 0.269 ± 0.61.

As to HYVKVRFRNRSVVYALIGGV, the amyloid nucleation score stood at 0.752 ± 0.54.

For GGYGERRDVVVDRSYTVDTG, the amyloid nucleation score stood at 0.071 ± 0.62.

As for IENDGMSRAFC, the amyloid nucleation score turned out to be 0.635 ± 0.67.

Take WFSDMTAFLC: the amyloid nucleation score entry is “inactive”.

For the substance GTFAWGHRFYVIAAYFILYD, the amyloid nucleation score entry is “inactive”.

On to SPRLAGMVSMVDKCRRASGR, for which the amyloid nucleation score is 0.097 ± 0.33.

In turn, GARVTLYAVS displayed an amyloid nucleation score of -0.475 ± 0.36.

For LGWVYLHMWLGTIYYLFFVI, the amyloid nucleation score is -1.14 ± 1.

Turning to CELPGLGVLLVGGKPMEWLN, the amyloid nucleation score entry was “inactive”.

For the substance VYTDLKGENAGGIIYCGIGS, the amyloid nucleation score turned out to be 0.445 ± 0.26.

Regarding RRSPGYMDLCWNGWFGRAVR, the amyloid nucleation score was 0.207 ± 0.5.

Turning to LSRSSWQQARICARVHGLGG, the amyloid nucleation score stood at 1.05 ± 0.58.

In turn, THCVSLLGIYFFSSWVMIVR gave an amyloid nucleation score of -0.266 ± 0.4.

Substance MRWSIFRSTWFCAYSSLVSS returned an amyloid nucleation score of 0.131 ± 0.5.

In turn, MWWHVSSMQDRDSGDFNGLL had an amyloid nucleation score of 0.323 ± 0.22.

VLGERYCPSNVLWLHLCGGE registered an amyloid nucleation score of 0.315 ± 0.28.

Turning to VLLGSCWVFKSQKGRGPSSC, the amyloid nucleation score was -0.51 ± 0.69.

The substance YQKDWFDMHEYYRPM displayed an amyloid nucleation score of 1.42 ± 0.64.

NVHVFRNRSEITFKRASSWE registered an amyloid nucleation score of 1.08 ± 0.9.

In turn, ARTDWFLNSRSSDYAIGFPY displayed an amyloid nucleation score of -0.157 ± 0.79.

For the substance WRGRVTKFRVLH, the amyloid nucleation score was determined as 0.105 ± 0.53.

TRTNLVAPCIMEVLSNVHRY: the amyloid nucleation score result is “inactive”.

Substance YTWQYAYLCQVMTSFYSGSI registered an amyloid nucleation score of -0.269 ± 0.47.

FQLGAHKLRAWLDRGYPEFA gave an amyloid nucleation score of -0.202 ± 0.64.

On to VYVFLADNGSDELLMLVLTG, for which the amyloid nucleation score stood at 0.12 ± 0.28.

Regarding KGHSANVYTAPLLCNNCHFF, the amyloid nucleation score was 6.703 ± 0.059.

On to RANSYGGMSNVLW, for which the amyloid nucleation score was determined as 0.281 ± 0.28.

Consider MYGCFSGGSVFSSYAALFVI, for which the amyloid nucleation score is -0.766 ± 0.41.

The substance AHGMYAEGVTWSALVSSRCE showed an amyloid nucleation score of 2.56 ± 0.11.

Consider FLKDIYVYVTLVCHLRSLAS, for which the amyloid nucleation score is -0.589 ± 0.49.

Take FRLMVPGVCRRLANGLRMIW: the amyloid nucleation score was -0.3 ± 0.35.

The substance IQFPRLGGDTTVCDYGHVAI registered an amyloid nucleation score of 1.32 ± 0.49.

The substance AQSSVKRWGGLCRNVMKDGW came in with an amyloid nucleation score of 0.276 ± 0.32.

Regarding CSVGASAIGNM, the amyloid nucleation score came to 0.717 ± 0.59.

The substance ASNYGQWSCHPGRSLFVQFF showed an amyloid nucleation score of 4.56 ± 0.11.

As to RLCRTVEWCGCYSIPNLQCA, the amyloid nucleation score amounted to 0.118 ± 0.46.

For FIYVDSGDKNGYCACDKFLP, the amyloid nucleation score is 6.059 ± 0.052.

The substance ADSHYSDVGGYWMNSSLCK yielded an amyloid nucleation score of 1.31 ± 0.8.

Substance PKMPGMVYDTPN displayed an amyloid nucleation score of -1.49 ± 2.4.

Regarding SNSSLECYCMNVVRFHLGLS, the amyloid nucleation score worked out at 0.735 ± 0.18.

CWLMGMSGPPFDRVWGVVIR had an amyloid nucleation score of -0.086 ± 1.2.

In turn, RNTVQYVFYPQDLWWSAGVQ showed an amyloid nucleation score of 5.429 ± 0.048.

As for MKTMRKW, the amyloid nucleation score result is “inactive”.

SQLARLLFIAGIVPTRARVI showed an amyloid nucleation score of 0.144 ± 0.64.

Regarding QGCPRVWRSQSCCGVGGVIP, the amyloid nucleation score entry was “inactive”.

Regarding SNEYLCYYMSTNA, the amyloid nucleation score was -0.345 ± 0.39.

The substance EFEPLSFQLVVELMRKFL had an amyloid nucleation score of 1.52 ± 0.19.

In the case of FGHYALRANILLTPITKGMS, the amyloid nucleation score was 0.892 ± 0.56.

In turn, CELPTRLF gave an amyloid nucleation score of -0.143 ± 0.33.

In turn, PLVFCIITGPCV displayed an amyloid nucleation score of -0.468 ± 0.55.

In turn, LRGRLYASGRVEFYHKQSLF displayed an amyloid nucleation score of 0.526 ± 0.83.

For FYPLVTFFVLHHGNMNIHRV, the amyloid nucleation score stood at 6.778 ± 0.066.

The substance GIGAGYKFNDTVFSEGCSSG gave an amyloid nucleation score of 0.653 ± 0.93.

Take VAEEYSN: the amyloid nucleation score entry is “inactive”.

Substance RLGLVVSVGRRRLLTAQLGK came in with an amyloid nucleation score of 1.38 ± 0.72.

For RTKLVEHSMFCNGGEKRHTP, the amyloid nucleation score amounted to 0.574 ± 0.56.

In turn, MVDFNSRSKYSVYLSHRGKF showed an amyloid nucleation score of 1.7 ± 0.11.

RVGQSCCDFT showed an amyloid nucleation score of -0.047 ± 1.1.

In the case of PTYIKLILTAHYLSEFRSNV, the amyloid nucleation score is 1.02 ± 0.17.

As to MALMYLMVTRVDLALSL, the amyloid nucleation score came to 0.072 ± 0.34.

As to TGTSSPMRPLH, the amyloid nucleation score was 0.532 ± 0.69.

Take HPALKWLCPGIERLCLAWSG: the amyloid nucleation score turned out to be 0.818 ± 0.61.

In turn, MTVYLITNRHLR gave an amyloid nucleation score of 0.905 ± 0.64.

In the case of SCQATLLFLSYSSNVGLIST, the amyloid nucleation score is -0.267 ± 1.1.

In the case of ANIHYL, the amyloid nucleation score was 2.63 ± 0.12.

In turn, LRTISNVDLLSVS showed an amyloid nucleation score of 0.138 ± 0.54.

HYVYRGQLRGHACKGWSYFG returned an amyloid nucleation score of 0.531 ± 0.51.

Substance PMTTWYSVFCAEFL had an amyloid nucleation score of 0.688 ± 0.32.

DVFHTLIRSRLDFFFYKRER: the amyloid nucleation score was 0.14 ± 0.4.

TVKHC yielded an amyloid nucleation score of 3.17 ± 0.14.

In turn, DRRRVVNINARQSVNIRFRM yielded an amyloid nucleation score of 8.53 ± 0.044.
